# Test results as given in patent US20190376053A1 (BOARD OF TRUSTEES OF THE UNIVERSITY OF ARKANSAS, published 2019).
# Key:
# [1] = target: T1, collagen fibril (porcine skin fiber, Nippi, Inc) (porcine); assay: collagen fibril binding assay (spin column, SDS-PAGE of the unbound protein, Scatchard plot)
# T1 construct: also called collagen fiber; insoluble collagen fibril
# [2] = target: rat collagen (collagen type I) (rat, UniProt P02454 152-1207; P02466 86-1125); assay: cell-based or functional assay
# rat collagen (collagen type I), sequence (P02454 152-1207 limits assumed, chain 1 of 2): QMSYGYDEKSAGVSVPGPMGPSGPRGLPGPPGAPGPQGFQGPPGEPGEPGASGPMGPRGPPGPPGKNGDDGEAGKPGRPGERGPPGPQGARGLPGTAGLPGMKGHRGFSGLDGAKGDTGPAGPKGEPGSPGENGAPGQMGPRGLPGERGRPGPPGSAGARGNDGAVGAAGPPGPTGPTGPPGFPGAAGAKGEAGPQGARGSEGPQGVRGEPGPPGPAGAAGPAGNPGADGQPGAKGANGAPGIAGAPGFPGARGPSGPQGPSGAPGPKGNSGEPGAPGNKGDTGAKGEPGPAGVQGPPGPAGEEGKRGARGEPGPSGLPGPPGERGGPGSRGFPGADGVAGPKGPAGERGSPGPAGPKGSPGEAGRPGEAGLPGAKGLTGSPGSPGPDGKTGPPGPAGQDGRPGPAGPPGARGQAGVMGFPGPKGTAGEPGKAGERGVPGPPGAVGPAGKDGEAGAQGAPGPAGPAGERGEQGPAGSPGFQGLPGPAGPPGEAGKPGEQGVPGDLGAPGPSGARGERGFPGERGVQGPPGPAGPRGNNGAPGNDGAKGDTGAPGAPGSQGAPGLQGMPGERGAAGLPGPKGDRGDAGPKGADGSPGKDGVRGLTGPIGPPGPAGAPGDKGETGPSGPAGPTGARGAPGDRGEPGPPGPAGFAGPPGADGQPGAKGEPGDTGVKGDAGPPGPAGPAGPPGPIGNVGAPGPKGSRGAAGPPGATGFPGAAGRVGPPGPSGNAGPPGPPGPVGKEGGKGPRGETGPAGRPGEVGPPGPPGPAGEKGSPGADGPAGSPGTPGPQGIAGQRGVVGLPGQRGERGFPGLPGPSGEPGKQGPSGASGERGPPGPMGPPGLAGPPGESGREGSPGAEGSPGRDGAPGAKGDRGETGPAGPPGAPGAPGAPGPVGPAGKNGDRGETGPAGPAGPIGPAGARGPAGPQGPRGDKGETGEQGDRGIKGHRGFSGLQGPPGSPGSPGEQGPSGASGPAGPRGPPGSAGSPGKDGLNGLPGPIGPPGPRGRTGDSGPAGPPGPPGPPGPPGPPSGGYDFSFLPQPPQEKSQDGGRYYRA
# rat collagen (collagen type I), sequence (P02466 86-1125 limits assumed, chain 2 of 2): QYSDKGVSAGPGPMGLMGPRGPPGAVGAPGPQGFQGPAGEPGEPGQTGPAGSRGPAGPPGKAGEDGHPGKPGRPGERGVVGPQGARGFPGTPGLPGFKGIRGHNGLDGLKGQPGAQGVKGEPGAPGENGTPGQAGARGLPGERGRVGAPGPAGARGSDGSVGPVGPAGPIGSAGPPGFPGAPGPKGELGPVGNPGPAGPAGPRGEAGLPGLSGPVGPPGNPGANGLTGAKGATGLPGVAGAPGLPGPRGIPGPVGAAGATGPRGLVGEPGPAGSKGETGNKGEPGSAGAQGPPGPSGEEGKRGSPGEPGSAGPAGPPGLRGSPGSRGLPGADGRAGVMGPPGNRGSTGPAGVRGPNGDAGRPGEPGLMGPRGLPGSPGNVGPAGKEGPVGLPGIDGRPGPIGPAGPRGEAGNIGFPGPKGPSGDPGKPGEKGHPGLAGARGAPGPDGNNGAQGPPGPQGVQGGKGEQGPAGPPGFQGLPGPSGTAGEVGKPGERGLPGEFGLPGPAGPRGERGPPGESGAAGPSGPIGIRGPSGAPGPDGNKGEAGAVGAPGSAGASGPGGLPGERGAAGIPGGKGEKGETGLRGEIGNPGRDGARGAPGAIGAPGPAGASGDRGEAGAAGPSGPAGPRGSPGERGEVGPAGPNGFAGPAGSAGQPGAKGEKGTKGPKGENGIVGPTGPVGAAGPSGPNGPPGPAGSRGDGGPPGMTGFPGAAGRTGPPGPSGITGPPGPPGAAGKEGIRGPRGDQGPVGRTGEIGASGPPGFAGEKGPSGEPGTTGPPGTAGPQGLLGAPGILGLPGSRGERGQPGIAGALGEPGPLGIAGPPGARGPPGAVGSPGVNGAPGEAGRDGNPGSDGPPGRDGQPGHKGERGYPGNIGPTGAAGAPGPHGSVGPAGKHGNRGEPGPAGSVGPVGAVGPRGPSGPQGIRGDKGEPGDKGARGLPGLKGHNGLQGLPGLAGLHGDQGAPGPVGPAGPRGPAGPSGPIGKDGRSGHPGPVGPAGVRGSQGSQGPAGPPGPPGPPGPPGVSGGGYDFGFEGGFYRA
Binder,Kd [1] [µM],"collagen fibril thickness against the collagen control, 5:1 ratio [2] [% less]","fibril growth, absorption, higher ratios of tandem CBD [2]","fibril growth, absorption, lower ratios of CBD [2]"
"collagen-binding domain s3b derived from Clostridium histolyticum class I collagenase ColG (other, domain: s3b; also called ColGS3b; CBD (s3b)) GNEKLKEKENNDSSDKATVIPNFNTTMQGSLLGDDSRDYYSFEVKEEGEVNIELDKKDEFGVTWTLHPESNINDRITYGQVDGNKVSNKVKLRPGKYYLLVYKYSGSGNYELRVNK",~100,–,–,–
tandem collagen-binding domain (s3a-s3b) derived from Clostridium histolyticum class I collagenase ColG (other) PITKEMEPNDDIKEANGPIVEGVTVKGDLNGSDDADTFYFDVKEDGDVTIELPYSGSSNFTWLVYKEGDDQNHIASGIDKNNSKVGTFKSTKGRHYVFIYKHDSASNISYSLNIKGLGNEKLKEKENNDSSDKATVIPNFNTTMQGSLLGDDSRDYYSFEVKEEGEVNIELDKKDEFGVTWTLHPESNINDRITYGQVDGNKVSNKVKLRPGKYYLLVYKYSGSGNYELRVNK,–,2,0.005,0.0217
